Test: label from the status in PepcDB records

Question: With “MQRLKTVFILFIAFLFFSCSGKTNEQAFFKELSKIDLQIAEGYQAKALKSLKRLQKKAVNSTNYVSIVKRQLKLNSIPDALISLQTGIKKIPDSPELSALLTSILIDSGKPAEALPYCEKLKDTPYASLGAEASILSDIALNSFNSDFSLLKAAYDKTENQVFLKNAAIVLAAKGRLREASNLRYNIPNDVAPEHPFFWSCIVYDLGVFDSIFGDLYFSLVYADKDGGEGKTAENARLHLMLAADAAYGQGDTERARAFWQAAADRSPEASPIVFYDLALTAPDEKERVDLLIECIDLYPDFYPVIARYVREDIALRELNSQDELSAYLESKGFYSIKMEETYFTSPKMTYKPEDLLARAMKNPNFDQRFILEEFRYNQITDKTYASKARGKADMWKILEKYGKESIIREYAKWYFAQSGDFNACLSVSEIGKRYEDSFYAGINSALSGDFENAVSSFAASAQVSAYAYASTVNSAYMYYMSGKTSEAVDTYSLAASMTQDKKRQSMLHYEIASIFYERKAYDRAISVLGYALELNPKNYQAASLLKKLKEFN” as the sequence, how does the protein production read?
Answer: The protein production was “failed”.

Question: With “MQRLQHYYQCFLAQLKNFDGIPALLLRLYLAPVFIMAGFSKTQMLNEEVTGFSAIMADPNIIAWFGNSDWGLGLPFPALLANLVILVEFFGGWFLLFGALTRLISIPLMFTMIVAATSVHADNGWFAITPTNSDISPAKVAVWLGIDSAQASLDNSEQTATRLEKMRELIEENGNTDWLYENGNIVVLNNGIEFSTTYFIMLLSLFFIGAGRYTSVDHFVAKRFLIEEKRFS” as the sequence, how does the protein production read?
Answer: The protein production was “failed”.

Question: With “MQRLSTEFSMNHPVRRSPIASFFVGLWDVMNFTRRLIFNLVFFGFLFMLLLVFVVALARGDGTKPLAERTTLVINPEGTLVEQFSADPVSRSLAKAVGDKSAQEVQLRDLVRVIEAAGKDRKIERVLLNLDKFQPSGFASQREVAAALQKLRASGKQIVAFSESMSQGQYLLAAQANEVYLDPMGSVLLEGLGRYRQYFREGLQDKLGVDVHLFRVGEYKSAAEPYILDAASADAKEADLFWMNDVWQRYLADVVTARKLSPAQLTAGIDTLPEGVAAAGGDLAKFALQQKLVDGLKTREEVDALLVKRGVADSDAESGFRNIGFNDYLSQLQAQDSPMDSRPQVAVVVATGEISGGEQPAGRIGGESTAALLRQARDDEKVKAVVLRVDSPGGEVFASEQIRREVVALKQAGKPVVVSMGDLAASGGYWISMNADRIYADPSTISGSIGIFGMVPNLTRALDKIGVHTDGVGTTRFAGAFDITRPLDPAAGQVIQAVINKGYADFTGKVAQARHQSVDAIDKVARGRVWSGAQAKERGLVDAFGGMSEAVADAADRAKLSRGKFRVRYVEKPATPFSQFMNGFAGSRMGAWMLSDSGMARALVARALPEVDTQLRFVESAVHDSKAGGTPVKSLAYCFCGF” as the sequence, how does the protein production read?
Answer: Its protein production is “failed”.

Question: With “MQRQNKQQEDSFMIPETSYDIVVVGAGPAGSTAALYAAKKGASVLLLDKKREIGSPIQCAGFLPDASEVKALLPEADLPGALKNYPDSCVLQPIRTQRIIPPNCNAKEFAVKGAVLDRRRYDQYLAEQAAEAGAELMVKTRVTKIQGTTVETSGIFGKHTIRAKAIIGADGPNSLVAKSRGLIMKPEARETSVAIEYQVRNVDIDPDALEMYFGKDYVPGGYAWVFPEGKDRANVGIGIRSCMAEKGVSAKEYLHRFIKKHPVAGPKLKNAVIMNVIAGIIPVNGAPANTATADSLVVGDAAGHIIATNGGGIPPAMIAGKIAGETAAEFAAGKCDLEEYDRRWRAQFGQALETSVQARQIMDGIMKSDALMNAAFRFISPEQMKVMQCGKLPGPVKLGLQALSRGKK” as the sequence, how does the protein production read?
Answer: Its protein production is “failed”.

Question: With “MQSFFDREFTFDRTARLFFIILLVGGIMAIVIGLRGILIPFCLSWILAYVLMPLVRFVQYRLHFRFRFLSVITVLVFISALIFFAILSLVPAVEEEVSKTITLLQQYRIDENLLQMLPAPIRKFLSESGSMNDLFKGISYEKLMENSKEIFGQLNKLVSGTISLFSYTTIFFIGVLYFIFILFDFEKLGKGFVNLFPVGHRIRVRSILKEVDKNMNSYFRGQALIALCVGILLSIGYKIIDFPLGVTLGLFIGMLNLIPYLQIVGLIPIVFLSVLKAAQTGQNFFVVLALGIGVMMIVQVIQDTILTPNIMGKRMGMSPAMILLSISIWGSLLGFFGLFIALPLTMSLYSVYKRYVIQDPKFIREENEETMPKKGLFRKHSRKEEK” as the sequence, how does the protein production read?
Answer: The protein production was “failed”.

Question: For “MQSILKPITNLFTMIFQAIHGFVASLDIFGVGAGYVITIFLLTLLVRLILLPLNIKQTRSQQKMQEIQPEIAKLQKKYKNNPEKAQQEMMKLYKENNVNPMSGCLPLLIQMPILFALYYVFTGLTELQGVSFLWLGDLWAPDRTFILPILSAATTYLSSLLMTKFTQSQAGGAPGGMNMNTMNIVMAGMMGVMSIQFPSMLVLYWVIGNLIQMVQTYFIVVLPSRKRAKEKEQYKDIK”, which protein production is on record?
Answer: Its protein production is “failed”.

Question: Which protein production does the source give for “MQSIRSILVVIDPTPGESLALKRAKLIAGVTQAHLHLLVCDRKHEHSALLSVLKSSLTGEGYSVTTEQAWNESLHETIIDVQQAEGCGLVIKQHLPDAPLKKALLTPADWKLLRYCPTPVLLVKTATPWVGGVVMAAIDVGNMDGEHRALHASIVDHGFDIASLAKAQLHVISAHPSPMLSAADPVFQLKETIEARYREQCKAFQAEFDIDDAHLHIEEGPADVLIPHLAHKLGAVLTIIGTVARTGISGALIGNTAEVVLDSLDSDVLVLKPADIMDHLEELAAKA” here?
Answer: Its protein production is “not failed”.

Question: Which protein production does the source give for “MQSRFRSDRRLTVRMGVTLFLLGLLYVGFVAALIALLKSWVLVVVIVALVFGAQYWFSDRIALFAMRGRVVEREEYPELHGVVDRLAAMADMPKPVVAVSEMEMPNAFATGRNPDNAVVCVTTGLLRRLEPAELEGVLAHELSHVAHKDVAVITVASFLGVIAGLIVRFAFYSQLFGGRRDQNTLAVLAVVMGVSAAVYALSFLLIRALSRYRELAADRAAALLTGRPSALAAALTKVTGDIARIPTKDLRTAQAFNAFYFTPAFGSDPGLGRFFATHPSLEQRLDQLGRISTELGEAPAPGKA” here?
Answer: The protein production was “failed”.

Question: With “MQSRSKSDMKPIRKEILNPGNAYIELTPGTRRLTPHDIGLFQVKFHFQTRRAGDSRIIDDSRKMEKPMELVLGKKFKLEVWELIVQQMSLNEVAKFTVHKSLCAQYPFISKTLRDIGKKPEERRHCCGMTLQNEGIGYTDLDELLQNPSDLEFIIELFSIELPEQYEKERWQMSDDEKMLATSTLRERGNNFYKASRFTEAETCYREAVGIVEQLMLKEKPHDEEWQELAAIKTPLLLNYAQCRLIAGDFYAVIEHCNEVLTLDPRNVKALFRRAKAHAGAWNPAQARRDFLDALALDASLKSTVSKELKSIEDQQQARNVQDRIHMQKLF” as the sequence, how does the protein production read?
Answer: Its protein production is “failed”.

Question: With “MQSVSSMSSMDHFWLVIFCACVAFIPRFFPLLFFTKRKIPKWFNEWMRFVPVSLFTALVVKSVFIDSKYAVITSGNLGMIISAILVGFVAYRTRSMTLSVVIGLVSVMIFVLLIHI” as the sequence, how does the protein production read?
Answer: The protein production was “failed”.

Question: For “MQSVWFYMGKSFKIHCLTYIIFILQWLIFLSCKKHYKGEKVDRKAGVILFWHGKLALMPFAFRHYRQKNKKAYVMISHHKDGEQIAKIIKLFGLDTVRGSTSRGASSALRAAFKVLEQNDDIVITPDGPRGPYHSISDGSIILAQKKELKIRILNYEANRFWKFKSWDKMILPKPFSKITYSLSEPLDILSLDKEKAKEFLMKQFDKISLADQFKE”, which protein production is on record?
Answer: The protein production was “failed”.

Question: With “MQTACQAVQHQRGRRQYNKLRNLLKDARHDCILFANEFQQCCYLPRERGESMEKWQTRSIYNAAVWYYHHCQDRMPIVMVTEDEEAIQQYGSETEGVFVITFKNYLDNFWPDLKAAHELCDSILQSRRERENESQESHGKEYPEHLPLEVLEAGIKSGRYIQGILNVNKHRAQIEAFVRLQGASSKDSDLVSDILIHGMKARNRSIHGDVVVVELLPKNEWKGRTVALCENDCDDKASGESPSEPMPTGRVVGILQKNWRDYVVTFPSKEEVQSQGKNAQKILVTPWDYRIPKIRISTQQAETLQDFRVVVRIDSWESTSVYPNGHFVRVLGRIGDLEGEIATILVENSISVIPFSEAQMCEMPVNTPESPWKVSPEEEQKRKDLRKSHLVFSIDPKGCEDVDDTLSVRTLNNGNLELGVHIADVTHFVAPNSYIDIEARTRATTYYLADRRYDMLPSVLSADLCSLLGGVDRYAVSIMWELDKASYEIKKVWYGRTIIRSAYKLFYEAAQELLDGNLSVVDDIPEFKDLDEKSRQAKLEELVWAIGKLTDIARHVRAKRDGCGALELEGVEVCVQLDDKKNIHDLIPKQPLEVHETVAECMILANHWVAKKIWESFPHQALLRQHPPPHQEFFSELRECAKAKGFFIDTRSNKTLADSLDNANDPHDPIVNRLLRSMATQAMSNALYFSTGSCAEEEFHHYGLALDKYTHFTSPIRRYSDIVVHRLLMAAISKDKKMEIKGNLFSNKDLEELCRHINNRNQAAQHSQKQSTELFQCMYFKDKDPATEERCISDGVIYSIRTNGVLLFIPRFGIKGAAYLKNKDGLVISCGPDSCSEWKPGSLQRFQNKITSTTTDGESVTFHLFDHVTVRISIQASRCHSDTIRLEIISNKPYKIPNTELIHQSSPLLKSELVKEVTKSVEEAQLAQEVKVNIIQEEYQEYRQTKGRSLYTLLEEIRDLALLDVSNNYGI” as the sequence, how does the protein production read?
Answer: Its protein production is “failed”.

Question: With “MQTESNPLAERFIARNLLDLAIRITLIGGLTVWCYRVAEPFIGMLLWSIILAVTLAPLHMRLTRLLGARPRLAAVVLTLATMLVLLVPGAMLTASLGDSLVNIFHHSTGRIVRIPAPPDFVIELPLIGVRLHEIWLQAMTNLQDVLKPLQPHLATAGRWLLAGMASAGLGIAVFLASIAIAGVILVYADPAKRAAHAIGVRIAGPEQGVALAQLTAATIRAVAQGVIGVALIQAVLAGLGFLLAGVPAAGLWAIVALLICIVQLPLFLLMVPMVVYVFLNNTPTVAAVFAVWCLLVSLCDNVLKPLMLARGVDIPIPVILIGALGGVLAAGIVGLFLGSVGFGLGYVLFMQWVRQQSPAG” as the sequence, how does the protein production read?
Answer: Its protein production is “failed”.

Question: For “MQTFAPGTRVYHLIIIVFFFFFCLSSFFASIVMADEYTGEATGSSEAKVHIIYTEKPTDEEPKTYHLRTLSSALGSEEAAKDALIYSYKEAASGFSAKLTPEQVAEISKQPGVIQVVPSQTYQLHKPGGGGGFKLT”, which protein production is on record?
Answer: The protein production was “failed”.

Question: Which protein production does the source give for “MQTFFQDTMATPLGELLIIADENNHLRAVEWREYEDGLFRSLNRSYRNDPFSLQSRHNPGGLTDSLQRYFDGELAIIDTLPVASVGTEFQQQVWRELRRIPCGEITTYGELATLLGRTGAARAVGMANGSNPISIVVPCHRVIGTGGALTGYAGGIHRKQWLLAHEGYLPHQNSLPL” here?
Answer: Its protein production is “failed”.

Question: Which protein production does the source give for “MQTKKAFLYVFNTMSDWEYGYLIAELNSGRYFKKDLAPLKVITVGANKEMITTMGGLRIKPDISLDECTLESKDLLILPGGTTWSEEIHQPILERIGQALKIGTIVAAICGATDALANMGYLDTRKHTSNNLEYTKMVCPNYKGEKFYELGPAVSDANLVTASGIAPLEFAMEVLKKIDVFTLDALHSWYNLNKTHKPEYFFQLMNSINK” here?
Answer: Its protein production is “not failed”.

Question: With “MQTPSKKYVVDIWSDFVCPWCWIAKRRFENALNRSGMQDDVQVNVRAYRLAANQAPEPMIGALKRKLGNPASADSMMSTVSKYGRADGLDYRFDTMMFGDTADAHILVKAVEDTAVKKRLVEALYEQSTSHGRSLFDRSSLEAIAREVGVSDESIQLAWSSVELRNEMKDDESFAAQLGSGVPLFVFDSSFSVSGAQPDAVFLEALNKMVANSNPEDSSMMGQVCSIDGCKV” as the sequence, how does the protein production read?
Answer: The protein production was “not failed”.

Question: Which protein production does the source give for “MQTQIKVRGYHLDVYQHVNNARYLEFLEEARWDGLENSDSFQWMTAHNIAFVVVNININYRRPAVLSDLLTITSQLQQLNGKSGILSQVITLEPEGQVVADALITFVCIDLKTQKALALEGELREKLEQMVK” here?
Answer: Its protein production is “not failed”.

Question: With “MQTVLKKRKKSGYGYIPDIADIRDFSYTPEKSVIAALPPKVDLTPSFQVYDQGRIGSCTANALAAAIQFERIHDKQSPEFIPSRLFIYYNERKIEGHVNYDSGAMIRDGIKVLHKLGVCPEKEWPYGDTPADQKTEEFPPGAPASKKPSDQCYKEARNYKITEYSRVAQDIDHLKACLAAGSPFVFGFSVYNSWVGNNSLPVKIPLPTKNDKLEGGHAVLCVGYDDEIRHFRIRNSWGNNVGENGYFWMPYEYIRNRQLADDFWVIKTVRK” as the sequence, how does the protein production read?
Answer: The protein production was “failed”.

Source: a protein production outcome set (Wang et al. 2014)
